Columns and labels:
βc/JAK2 binding = assay: Effect of blocking agents, detergents and DTT on the SPA (signal, background); parameters: species or system human
Procedure: (§1) Triplicate reactions were done for each data point. The buffer used in all the assays was 35 mM sodium phosphate, 150 mM NaCl, pH 8.0, 10% glycerol. Biotinylated peptides were allowed to bind to streptavidin-coated SPA beads (Amersham Life Sciences, Arlington Heights, Ill., catalog # RPNQ0006) with either less than saturating peptide or excess peptide. […] Under less than saturating conditions, beads and 40 pmole peptide were added to the assay plate well and incubated for one hour with gentle shaking on a Titer plate shaker (Lab-Line Instruments, Inc., Melrose Park, Ill.) at 600 rpm and not washed. […] The plates were then read on a MicroBeta (Wallac) set to read scintillation due to tritium.

[1] = biological target: NJAK2 (N-terminal portion of JAK2) (Homo sapiens, UniProt O60674); assay: SPA: binding of 3H-NJAK2 (N-terminal JAK2) to βc peptides on streptavidin-coated beads; conditions: less than saturating peptide, 40 pmole per reaction, FIG. 12B
Sequence of NJAK2 (N-terminal portion of JAK2) (O60674 1-294 S277G): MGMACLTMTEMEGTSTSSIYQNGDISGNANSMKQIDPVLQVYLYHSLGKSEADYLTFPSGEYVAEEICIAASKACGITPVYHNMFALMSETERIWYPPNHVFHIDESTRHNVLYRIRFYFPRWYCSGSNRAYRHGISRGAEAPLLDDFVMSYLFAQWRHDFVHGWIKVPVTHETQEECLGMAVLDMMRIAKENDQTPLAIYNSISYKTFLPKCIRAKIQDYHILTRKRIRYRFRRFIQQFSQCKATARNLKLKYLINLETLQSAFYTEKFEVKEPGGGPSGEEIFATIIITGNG
Procedure: (§2) Three different labeling reactions were done using ^3 H-N-succinimidyl propionate (^3 H-NSP, Amersham Life Sciences, Arlington Heights, Ill.). One reaction was done using 0.5 mg of purified JAK2 in 0.1 M borate buffer, pH 8.5, with a reaction volume of 150 μl and an incubation time of one hour on ice with dried 1 mCi of ^3 H-NSP (toluene was removed using a stream of nitrogen). […] Another reaction was done using the buffer 0.1 M sodium phosphate, pH 8.0, and a similar volume as before. One milligram of JAK2 in 1.2 ml of phosphate buffer was incubated for three hours on ice. […] A third reaction was done using 2.5 mg of purified JAK2 in 0.1 m sodium phosphate, pH 8.0, and 2.5 ml volume. It was incubated with 5 mCi of dried ^3 H-NSP on ice for 2 hours. […] All three products were separated from unincorporated label using PD-10 columns (Pharmacia Biotech, Uppsala, Sweden) pre-equilibrated with 20 mM Tris, pH 8.0, 0.15 M NaCl.
as §1
(§3) Either ^3 H-JAK2 or ^3 H-NJAK2 was added to the wells and, after incubation, the signals measured. […] A competition reaction was also done by adding 5 to 10-fold excess unlabeled JAK2 in those reactions.

JAK2 [2] = biological target: T1, JAK2 (Homo sapiens, UniProt O60674); assay: SPA: binding of 3H-JAK2 to βc peptides on streptavidin-coated beads; parameters: NJAK2 = N-terminal 294 residues; conditions: for activity profile in binding 3H-JAK2 (signal): less than saturating peptide, 40 pmole per reaction, FIG. 12A; for overall signals and signal-to-noise ratios, peptide and labeled JAK2 mixed prior to adding beads / activity profile, peptide and labeled JAK2 mixed prior to adding beads: mixed one hour before beads, FIG. 13; for overall signals and signal-to-noise ratios, peptide and labeled JAK2 mixed prior to adding beads: versus peptide bound to bead first; for signal: κ-casein included throughout the assay; for activity of C-terminal deletion peptide in the SPA: excess peptide, κ-casein 1 mg/ml
T1 sequence (O60674 3-1132): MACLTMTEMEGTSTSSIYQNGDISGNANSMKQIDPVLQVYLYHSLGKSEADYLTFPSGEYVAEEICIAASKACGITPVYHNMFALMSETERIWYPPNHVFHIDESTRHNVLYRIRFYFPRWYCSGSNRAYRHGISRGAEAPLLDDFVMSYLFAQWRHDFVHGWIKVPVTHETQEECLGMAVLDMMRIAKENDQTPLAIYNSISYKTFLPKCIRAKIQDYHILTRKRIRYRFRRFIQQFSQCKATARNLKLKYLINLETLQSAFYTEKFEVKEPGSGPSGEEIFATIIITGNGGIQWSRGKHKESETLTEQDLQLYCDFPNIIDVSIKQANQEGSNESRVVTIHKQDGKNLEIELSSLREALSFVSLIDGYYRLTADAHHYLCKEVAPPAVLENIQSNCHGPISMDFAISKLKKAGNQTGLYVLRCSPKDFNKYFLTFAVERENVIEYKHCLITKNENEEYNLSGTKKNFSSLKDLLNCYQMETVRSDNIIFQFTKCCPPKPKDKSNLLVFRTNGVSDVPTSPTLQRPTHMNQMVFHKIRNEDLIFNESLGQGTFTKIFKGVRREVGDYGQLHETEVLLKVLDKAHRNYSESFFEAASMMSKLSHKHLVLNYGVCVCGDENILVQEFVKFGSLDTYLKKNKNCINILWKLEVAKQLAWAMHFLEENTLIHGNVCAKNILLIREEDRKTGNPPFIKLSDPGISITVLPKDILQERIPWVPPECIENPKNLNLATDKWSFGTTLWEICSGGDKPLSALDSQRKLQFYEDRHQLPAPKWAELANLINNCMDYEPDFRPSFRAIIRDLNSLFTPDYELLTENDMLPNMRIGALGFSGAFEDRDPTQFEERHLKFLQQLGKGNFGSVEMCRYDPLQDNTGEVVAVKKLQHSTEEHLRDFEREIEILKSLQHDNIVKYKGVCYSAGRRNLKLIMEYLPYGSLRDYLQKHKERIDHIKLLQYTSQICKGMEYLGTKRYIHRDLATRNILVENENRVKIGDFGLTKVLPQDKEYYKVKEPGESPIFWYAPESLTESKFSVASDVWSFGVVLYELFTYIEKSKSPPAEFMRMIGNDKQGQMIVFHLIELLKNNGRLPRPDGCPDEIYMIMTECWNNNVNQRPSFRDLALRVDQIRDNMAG
Procedure: Cells were lysed by dounce homogenization (20 strokes) in 1X phosphate buffered saline (PBS), pH 7.5 at 4 C. […] For some experiments, the JAK2 protein (0.15 mg/ml), aliquoted into 7 equivalent tubes, was then subjected to ultracentrifugation in an Airfuge using an A-110 rotor at an average of 164,000×g for a period of 6 hours at ambient temperature. At zero time, and at each subsequent hour thereafter, a tube of JAK2 was removed for analyses (ELISA, SDS polyacrylamide gel electrophoresis, and Western blotting).
as §2, §1, §3

JAK2 [3] = biological target: T1, JAK2; assay: ELISA binding of JAK2 to immobilized βc peptides; parameters: Y918N clone error corrected to Tyr; conditions: for binding of JAK2 (ELISA): biotinylated peptides on streptavidin plate; for binding of JAK2 (ELISA) / saturation of JAK2 binding at 0.4 μM peptide (ELISA): FIG. 24
Procedure: βc peptides corresponding to the proposed JAK2 binding domain (Table 1) were serially diluted and bound 16 hours at room temperature to streptavidin coated 96-well plates (Boehringer-Mannheim, Indianapolis, Ind.) and blocked at 37° with 1% fetal bovine serum in PBS. JAK2 protein was serially diluted on the plate and allowed to bind for 1 hour at room temperature. Plates were washed between incubations with ELISA wash (PBS with 0.04% TWEEN 20). Detection was via anti-FLAG antibody (10 μg/ml, Kodak, New Haven, Conn.) followed by anti-mouse Ig conjugated to peroxidase (1:5000 dilution, Boehringer Mannheim) and 1 mg/ml 2,2'-azinobis(3-ethylbenzthiazolinesulfonic acid) (Sigma), 0.003% H2 O2, 28 mM citric acid, 44 mM Na2 HPO4.
The ELISA assay worked best when the biotinylated βc peptides were immobilized on a streptavidin 96-well plate and the JAK2 was allowed to bind. A dual titration of βc peptides vs. JAK2 was performed (FIG. 24). Peptide 1 [SEQ ID NO:11] (FIG. 24 A) and peptide 2 [SEQ ID NO:12] […] Because 0.4 μM peptide was calculated to saturate the number of biotin binding sites in each well, it was expected that the amount of JAK2 binding should saturate at this quantity of peptide. […] (FIGS. 24 C and D) but peptides 5 and 6 [SEQ ID NOS:15 and 16]

JAK2 [4] = biological target: T1, JAK2; assay: SPA competition: soluble peptide/streptavidin against peptide 4-coated SPA beads for binding 3H-JAK2; parameters: Y918N clone error corrected to Tyr
Excerpt: FIGS. 20 A and B illustrate a test of the ability of streptavidin-peptide 4 complexes to compete for binding of 3H-JAK2 to peptide 4-coated SPA beads. For A, #0 is a beads only control. In all reactions with peptide bound to beads, excess peptide 4 [SEQ ID NO:14] was bound to beads before adding soluble samples. The reaction in #1 is peptide 4 [SEQ ID NO:14] bound to beads only, no added peptide 4 [SEQ ID NO:14] or streptavidin. #2 contained soluble peptide 4/streptavidin at a ratio of 1:1. #3 contained soluble peptide 4/streptavidin at a ratio of 4:1. #4 contained 20 μM peptide 4 added as soluble peptide 4. #5 contained 20 μM streptavidin. […] For B, 0 is a beads only control. In all reactions with peptide bound to beads, excess peptide 4 was bound to beads in the presence of 1 mg/ml κ-casein (as described in Materials and Methods of Example 8) before adding soluble samples. The reaction in #1 is peptide 4 bound to beads only, no added peptide 4 or streptavidin. #2 contained peptide 1/streptavidin at a ratio of 4:1 and #3 contained peptide 4/streptavidin at a ratio of 4:1.
The assay was set up in 96-well plates (Wallac, catalog # 1450-401), Turku, Finland, using a total assay volume of 200, μl/well. Triplicate reactions were done for each data point. The buffer used in all the assays was 35 mM sodium phosphate, 150 mM NaCl, pH 8.0, 10% glycerol. Biotinylated peptides were allowed to bind to streptavidin-coated SPA beads (Amersham Life Sciences, Arlington Heights, Ill., catalog # RPNQ0006) with either less than saturating peptide or excess peptide. For 400 μg SPA beads used per reaction, there was the capacity to bind 49 pmole of biotin (given the binding capacity of 121 pmole biotin/mg bead). Under less than saturating conditions, beads and 40 pmole peptide were added to the assay plate well and incubated for one hour with gentle shaking on a Titer plate shaker (Lab-Line Instruments, Inc., Melrose Park, Ill.) at 600 rpm and not washed. Under conditions of excess peptide, beads and peptide (80 pmole of peptide per 400 μg of bead) were mixed in batch with or without 1 mg/ml K-casein added as described in Results and Discussion, incubated for one hour with rotation, washed three times with buffer and aliquotted into wells. ^3 H-JAK2 or ^3 H-NJAK2 and any other components to be tested were added and the reactions were mixed and incubated for one hour in the dark at room temperature. The plates were then read on a MicroBeta (Wallac) set to read scintillation due to tritium.
The ability of excess peptide 4 [SEQ ID NO: 14] to compete for binding of JAK2 was tested. Biotinylated peptide 4 was bound to streptavidin in solution to mimic the conditions of the peptide 4 bound to the beads. It was used at a ratio of 1:1 (peptide 4: streptavidin) and at a ratio of 4:1 to see whether having multiple peptides on one streptavidin molecule might do a better job of binding JAK2 and therefore of competing. […] This could be due to the free streptavidin pulling some of the peptide 4 [SEQ ID NO: 14] off the bead. […] Another SPA was done using peptide 4 [SEQ ID NO:14] or peptide 1 [SEQ ID NO:11] bound to streptavidin at a ratio of 4:1. […] The results are shown in panel B of FIG. 20.

O[C@H](CS)[C@H](O)CS (racemic) [dithiothreitol]
additional effect of dithiothreitol (βc/JAK2 binding; 0.1 or 1 mM DTT with Brij 35 0.0025%, FIG. 19B): no obvious additional effect

EKIPNPSKSHLFQNGSAELWP [peptide 1, βc peptide, N-terminal truncation]
activity profile in binding 3H-NJAK2 (signal) [1]: gave no signal
activity profile in binding 3H-JAK2 (signal) (JAK2 [2]): gave no signal
overall signals and signal-to-noise ratios, peptide and labeled JAK2 mixed prior to adding beads (JAK2 [2]): lower overall signals and signal-to-noise ratios
activity profile, peptide and labeled JAK2 mixed prior to adding beads (JAK2 [2]): same activity profile
signal (JAK2 [2]): very little signal
binding of JAK2 (ELISA) (JAK2 [3]): no binding activity
competition for binding of JAK2 (JAK2 [4]; peptide/streptavidin 4:1, beads with 1 mg/ml κ-casein, FIG. 20B): decrease in signal

FCGIYGYRLRRKWEEKIPNPSKSHLFQNGSAELWP [peptide 5, βc peptide, N-terminal truncation]
activity profile in binding 3H-NJAK2 (signal) [1]: peptide 4>peptide 3>peptide 5>peptide 6>peptides 1 and 2
activity profile in binding 3H-JAK2 (signal) (JAK2 [2]): peptide 4>peptide 3>peptide 5>peptide 6>peptides 1 and 2
saturation of JAK2 binding at 0.4 μM peptide (ELISA) (JAK2 [3]): did not show saturation

GIYGYRLRRKWEE [CTD-5, C-terminal deletion of peptide 4]
activity of C-terminal deletion peptide in the SPA (JAK2 [2]; 10 nM labeled JAK2, FIG. 21B): as active as peptide 4

GIYGYRLRRKWEEKIPN [CTD-4, C-terminal deletion of peptide 4]
activity of C-terminal deletion peptide in the SPA (JAK2 [2]; 32.5 nM labeled JAK2, FIG. 21A): slight decrease in the activity

LALRFCGIYGYRLRRKWEEKIPNPSKSHLFQNGSAELWP [peptide 6, βc peptide]
activity profile in binding 3H-NJAK2 (signal) [1]: peptide 4>peptide 3>peptide 5>peptide 6>peptides 1 and 2
activity profile in binding 3H-JAK2 (signal) (JAK2 [2]): peptide 4>peptide 3>peptide 5>peptide 6>peptides 1 and 2
overall signals and signal-to-noise ratios, peptide and labeled JAK2 mixed prior to adding beads (JAK2 [2]): lower overall signals and signal-to-noise ratios
activity profile, peptide and labeled JAK2 mixed prior to adding beads (JAK2 [2]): same activity profile
signal (JAK2 [2]): very little signal
saturation of JAK2 binding at 0.4 μM peptide (ELISA) (JAK2 [3]): did not show saturation

RKWEEKIPNPSKSHLFQNGSAELWP [peptide 2, βc peptide, N-terminal truncation]
activity profile in binding 3H-NJAK2 (signal) [1]: gave no signal
activity profile in binding 3H-JAK2 (signal) (JAK2 [2]): gave no signal
binding of JAK2 (ELISA) (JAK2 [3]): no binding activity

YRLRRKWEEKIPNPSKSHLFQNGSAELWP [peptide 3, βc peptide, N-terminal truncation]
activity profile in binding 3H-NJAK2 (signal) [1]: peptide 4>peptide 3>peptide 5>peptide 6>peptides 1 and 2
suitability in the SPA (JAK2 [2]): two most optimal
activity profile in binding 3H-JAK2 (signal) (JAK2 [2]): peptide 4>peptide 3>peptide 5>peptide 6>peptides 1 and 2
suitability for the ELISA (JAK2 [3]): appear optimal

bovine serum albumin [BSA]
effect on background (βc/JAK2 binding; BSA 0.1 or 0.5 mg/ml, FIG. 16): no effect
effect on signal (βc/JAK2 binding; BSA 0.1 or 0.5 mg/ml, FIG. 16): slight positive effect

streptavidin [reference compound]
signal with streptavidin alone (JAK2 [4]; 20 μM streptavidin, FIG. 20A): decreases the signal to a greater extent than streptavidin with peptide 4

κ-casein
effect on signal and background (βc/JAK2 binding; κ-casein during binding of excess peptide to beads, washed away, FIG. 15): decreases both signal and background

Source: US6187552A, “Method for identifying inhibitors of JAK2/cytokine receptor binding” (Pharmacia & Upjohn Company, priority 1998, dated 2001)
